Target: T1, B. subtilis Acyl Carrier Protein Synthase (ACPS), holo-[acyl carrier protein] synthase (B. subtilis, UniProt P96618 3-121, limits assumed)
T1 construct: A trimer of ACPS was the molecular replacement probe; three ACPS molecules per asymmetric unit; also called A1; B1
T1 sequence: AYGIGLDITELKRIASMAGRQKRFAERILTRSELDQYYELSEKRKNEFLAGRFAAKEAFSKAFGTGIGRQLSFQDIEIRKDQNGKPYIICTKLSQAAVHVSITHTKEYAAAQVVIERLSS
Assay: gel filtration of the mixed proteins, complex purified and crystallized
Procedure: Crystallization of ACPS with ACP Purified ACP and ACPS were mixed at a 1:1.1 molar ratio and the mixture was loaded onto a gel filtration column. The resulting purified complex was dialyzed against a solution containing 50 mM Bis-Tris pH 6.4, 100 mM NaCl, 10 mM MgCl_2, and 10 mM DTT before concentrating the complex to ~10 mg/mL. Crystallization conditions for the ACP/ACPS complex were also determined using the sparse matrix screens available from both Hampton Research and Emerald Biostructures. Screens were set up with 2 μL drops at both 18° C. and 4° C. Optimization of a crystalline hit (0.2M Potassium Formate, 20% PEG 3350) gave diffraction quality rod shaped crystals. Crystals could be obtained between 0.15M and 0.3M Potassium Formate and between 15 and 23% PEG 3350. The rate of growth seriously affected the quality of crystals with the optimal crystals being formed between 8 and 12 days after setup. The crystals were grown with a 1:2 drop ratio of protein to well solution at 18° C. These crystals belonged to space group C222_1 with unit cell parameters a=78.46, b=122.03, c=136.77 Å and contained three molecules of ACPS and three molecules of ACP in the asymmetric unit.

binding result: binds
B1: B. subtilis Acyl Carrier Protein (ACP), holo form (other)
chain: GPLGSADTLERVTKIIVDRLGVDEADVKLEASFKEDLGADSLDVVELVMELEDEFDMEISDEDAEKIATVGDAVNYIQNQQ
modifications: phosphopantetheinyl group attached to the O-gamma of Ser-36
notes: also called holo-ACP; AP1
